Experimental data reported in US20200407467.

Columns and labels:
[1] = biological target: T1, ERO1L peptide 91-180 (human library), Q96HE7
T1 chain: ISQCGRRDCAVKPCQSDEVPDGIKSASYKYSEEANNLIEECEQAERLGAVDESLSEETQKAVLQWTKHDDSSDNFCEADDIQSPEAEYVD

[2] = biological target: T2, BSN peptide 631-720 (human library), Q9UPA5
T2 chain: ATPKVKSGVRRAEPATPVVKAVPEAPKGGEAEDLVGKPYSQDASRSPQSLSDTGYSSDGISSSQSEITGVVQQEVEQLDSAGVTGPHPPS

[3] = biological target: T7-SEPARATE PreScission-cleavable clone, monovalent display (T7Select1-2b)
[4] = biological target: T3, Znf462 peptide 1-90 (human library), Q96JM2
T3 chain: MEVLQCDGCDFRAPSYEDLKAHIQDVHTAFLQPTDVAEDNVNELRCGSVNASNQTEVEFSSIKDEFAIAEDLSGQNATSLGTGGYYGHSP

[5] = biological target: LOC100287737 peptide 496-585 (human library)
[6] = biological target: T4, Efs peptide 181-270 (human library), O43281
T4 chain: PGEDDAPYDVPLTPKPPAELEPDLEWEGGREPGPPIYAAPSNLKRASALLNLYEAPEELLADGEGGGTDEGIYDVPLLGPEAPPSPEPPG

[7] = biological target: T5, HUWE1 peptide 2341-2430 (human library), Q7Z6Z7
T5 chain: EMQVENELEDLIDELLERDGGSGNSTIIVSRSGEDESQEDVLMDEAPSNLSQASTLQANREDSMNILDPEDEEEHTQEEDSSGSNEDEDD

[8] = biological target: T6, HMGXB4 peptide 226-315 (human library), Q9UGU5
T6 chain: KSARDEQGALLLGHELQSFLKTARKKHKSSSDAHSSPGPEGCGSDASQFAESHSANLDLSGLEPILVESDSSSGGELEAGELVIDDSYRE

[9] = biological target: unmapped_NM peptide 91-180 (human library)
[10] = biological target: T7, GSDMD peptide 222-278 (mouse library)
T7 chain: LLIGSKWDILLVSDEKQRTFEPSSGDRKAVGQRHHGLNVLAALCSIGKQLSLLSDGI

[11] = biological target: HECT, UBA and WWE Domain Containing E3 Ubiquitin Protein Ligase 1 (HUWE1), endogenous in THP-1 cells, Q7Z6Z7
[12] = biological target: T8, HUWE1 peptide 2296-2485 (human library), Q7Z6Z7
T8 chain: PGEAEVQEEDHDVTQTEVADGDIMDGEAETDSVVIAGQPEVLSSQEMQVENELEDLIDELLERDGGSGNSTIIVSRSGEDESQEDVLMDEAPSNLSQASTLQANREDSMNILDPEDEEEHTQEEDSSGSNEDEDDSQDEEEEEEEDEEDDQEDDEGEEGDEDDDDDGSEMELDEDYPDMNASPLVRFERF

[13] = biological target: T9, ANAPC1 peptide 1-90 (human library), Q9H1A4
T9 chain: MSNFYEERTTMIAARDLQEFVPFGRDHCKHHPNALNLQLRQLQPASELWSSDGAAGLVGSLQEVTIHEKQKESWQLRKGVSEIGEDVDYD

[14] = biological target: T10, C14orf93 peptide 91-180 (human library), Q9H972
T10 chain: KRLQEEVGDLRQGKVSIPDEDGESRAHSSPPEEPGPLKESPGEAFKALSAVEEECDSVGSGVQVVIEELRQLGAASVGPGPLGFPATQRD

[15] = biological target: T11, Hyls1 peptide 1-90 (human library), Q96M11
T11 chain: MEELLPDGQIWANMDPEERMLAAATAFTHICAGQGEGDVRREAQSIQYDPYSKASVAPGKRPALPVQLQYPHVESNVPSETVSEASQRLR

[16] = biological target: T12, IL1B peptide 75-131 (mouse library)
T12 chain: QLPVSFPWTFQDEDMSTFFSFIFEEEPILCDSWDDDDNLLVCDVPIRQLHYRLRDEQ

[17] = biological target: T13, GSDMD peptide 259-315 (mouse library)
T13 chain: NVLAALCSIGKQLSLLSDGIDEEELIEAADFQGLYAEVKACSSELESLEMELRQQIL

[18] = biological target: T14, Hmcn2 peptide 1576-1665 (human library), Q8NDA2
T14 chain: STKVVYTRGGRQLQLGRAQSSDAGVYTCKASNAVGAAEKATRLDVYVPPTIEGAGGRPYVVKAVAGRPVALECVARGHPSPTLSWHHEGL

[19] = biological target: T15, LYST peptide 1171-1260 (human library), Q99698
T15 chain: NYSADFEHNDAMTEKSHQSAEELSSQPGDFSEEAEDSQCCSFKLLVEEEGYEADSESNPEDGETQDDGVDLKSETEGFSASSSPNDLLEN

[20] = biological target: T16, IL1B peptide 0-56 (mouse library)
T16 chain: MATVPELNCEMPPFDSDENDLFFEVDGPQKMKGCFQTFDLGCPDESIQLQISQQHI

[21] = biological target: Gasdermin-D (peptides of the human library)
[22] = biological target: T17, HUWE1 peptide 2291-2347 (mouse library), Q7TMY8
T17 chain: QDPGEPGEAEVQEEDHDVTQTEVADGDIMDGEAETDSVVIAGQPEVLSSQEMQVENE

[23] = biological target: T18, TNS3 peptide 451-540 (human library), Q68CZ2
T18 chain: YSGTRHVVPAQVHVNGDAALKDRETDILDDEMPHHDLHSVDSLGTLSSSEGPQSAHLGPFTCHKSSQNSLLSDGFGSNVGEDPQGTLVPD

[24] = biological target: T19, hoxa2 peptide 271-360 (human library), O43364
T19 chain: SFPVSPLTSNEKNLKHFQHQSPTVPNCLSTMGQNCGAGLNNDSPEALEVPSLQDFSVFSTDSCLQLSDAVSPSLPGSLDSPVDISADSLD

[25] = biological target: MAP3K14 peptide 496-585 (human library), Q99558
[26] = biological target: T20, ZNF469 peptide 811-900 (human library), Q96JG9
T20 chain: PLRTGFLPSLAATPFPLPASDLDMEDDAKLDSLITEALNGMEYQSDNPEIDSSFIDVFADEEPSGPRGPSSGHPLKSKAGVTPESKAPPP

[27] = biological target: T21, IL1B peptide 74-130 (mouse library)
T21 chain: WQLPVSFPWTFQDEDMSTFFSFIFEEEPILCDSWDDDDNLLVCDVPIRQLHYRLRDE

[28] = biological target: T22, HUWE1 peptide 2251-2340 (human library), Q7Z6Z7
T22 chain: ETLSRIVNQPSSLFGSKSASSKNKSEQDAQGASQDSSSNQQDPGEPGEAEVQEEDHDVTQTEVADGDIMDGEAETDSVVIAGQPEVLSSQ

[29] = biological target: T23, HUWE1 peptide 2328-2384 (mouse library), Q7TMY8
T23 chain: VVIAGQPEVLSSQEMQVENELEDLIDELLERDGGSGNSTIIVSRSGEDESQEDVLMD

[30] = biological target: T24, UHRF1BP1L peptide 991-1080 (human library), A0JNW5
T24 chain: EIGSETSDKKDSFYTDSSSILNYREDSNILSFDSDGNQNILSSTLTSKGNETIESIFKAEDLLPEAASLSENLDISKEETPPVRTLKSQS

B1: Caspase-1 (recombinant) (protein)
chain: NPAMPTSSGSEGNVKLCSLEEAQRIWKQKSAEIYPIMDKSSRTRLALIICNEEFDSIPRRTGAEVDITGMTMLLQNLGYSVDVKKNLTASDMTTELEAFAHRPEHKTSDSTFLVFMSHGIREGICGKKHSEQVPDILQLNAIFNMLNTKNCPSLKDKPKVIIIQACRGDSPGVVWFKDSVGVSGNLSLPTTEEFEDDAIKKAHIEKDFIAFCSSTPDNVSWRHPTMGSVFIGRLIEHMQEYACSCDVEEIFRKVRFSFEQPDGRAQMPTTERVTLTRCFYLFPGH
B1 was tested, and the Caspase1 fold change [1] was 19.8 fold, the Caspase1 fold change [2] was 18.8 fold and the “enrichment of the PreScission digestible clone spiked into the human library” value [3] was “no enrichment is observed when digested with Caspase-1”. It also gave a Caspase1 fold change [4] of 19.1 fold, a Caspase1 fold change [5] of 16.4 fold and a Caspase1 fold change [6] of 21.1 fold. For the same protein, the Caspase1 fold change [7] was 16.6 fold, the Caspase1 fold change [8] was 16.5 fold and the Caspase1 fold change [9] was 18.7 fold. The Caspase1 fold change [10] was 4.23 fold, the “Western blot, cleavage of endogenous HUWE1 in THP-1 lysate” value [11] was “robust cleavage of endogenous HUWE1” and the Caspase1 fold change [12] was 22.7 fold. It also gave a Caspase1 fold change [13] of 16.4 fold, a Caspase1 fold change [14] of 18.2 fold and a Caspase1 fold change [15] of 19.7 fold. The Caspase1 fold change [16] was 8.8 fold, the Caspase1 fold change [17] was 6.78 fold and the Caspase1 fold change [18] was 16.3 fold. The Caspase1 fold change [19] was 21 fold, the Caspase1 fold change [20] was 8.1 fold and the “enrichment in SEPARATE (human library digest)” value [21] was “did not score in the assay”. For the same protein, the Caspase1 fold change [22] was 6.13 fold, the Caspase1 fold change [23] was 18.7 fold and the Caspase1 fold change [24] was 17.1 fold. It also gave a Caspase1 fold change [25] of 16.5 fold, a Caspase1 fold change [26] of 16.8 fold and a Caspase1 fold change [27] of 13.2 fold. It also gave a Caspase1 fold change [28] of 17.6 fold, a Caspase1 fold change [29] of 23.1 fold and a Caspase1 fold change [30] of 16.4 fold.
